Measurements taken from US20240116985A1 (published 2024).
Starred links: 1 amine or outer side, 2 acyl side, 3 side chain; linkers in the order of their positions; H or OH if unused. Positions of bridges follow the written chain, without caps; N, C: chain ends. Non-standard residues stand in square brackets, D forms with d. Primed or numbered codes have the meaning given here. *: point of attachment. PyrS2″ = (S)-3-amino-1-((pent-4-en-1-yloxy)carbonyl)pyrrolidine-3-carboxylic acid (stapling residue), C=CCCCOC(=O)N1CC[C@@](N[*:1])(C(=O)[*:2])C1; B5(24) = 2-amino-2-(pent-4-en-1-yl)hept-6-enoic acid, 2,2-bis(4-pentenyl)glycine (stitching residue), C=CCCCC(CCCC=C)(N[*:1])C(=O)[*:2]; B5(4) = 2,2-bis(4-pentenyl)glycine = 2-amino-2-(pent-4-en-1-yl)hept-6-enoic acid (stitching residue), C=CCCCC(CCCC=C)(N[*:1])C(=O)[*:2]; PyrS = (S)-1-((allyloxy)carbonyl)-3-aminopyrrolidine-3-carboxylic acid, C=CCOC(=O)N1CC[C@@](N[*:1])(C(=O)[*:2])C1; B5(3) = 2,2-bis(4-pentenyl)glycine (stitching residue), C=CCCCC(CCCC=C)(N[*:1])C(=O)[*:2]; B5 = 2-amino-2-(pent-4-en-1-yl)hept-6-enoic acid, C=CCCCC(CCCC=C)(N[*:1])C(=O)[*:2]; Phe(3-COOH) = N[C@@H](Cc1cccc(C(=O)O)c1)C(=O)O; 2F3MeF = Cc1cccc(C[C@H](N[*:1])C(=O)[*:2])c1F; Phe(3-Me) = Cc1cccc(C[C@H](N)C(=O)O)c1; Bta = N[C@@H](Cc1csc2ccccc12)C(=O)O; Lys(iPr) = CC(C)NCCCC[C@H](N)C(=O)O; αAllylPro = C=CC[C@@]1(C(=O)O)CCCN1; Azidoacetyl = [N-]=[N+]=NCC(=O)*; hPhe = N[C@@H](CCc1ccccc1)C(=O)O; tBuAla = CC(C)(C)C[C@H](N)C(=O)O; 3Pal = N[C@@H](Cc1cccnc1)C(=O)O; R8 = C=CCCCCCC[C@@](C)(N)C(=O)O; 3Thi = N[C@@H](Cc1ccsc1)C(=O)O; Cha = N[C@@H](CC1CCCCC1)C(=O)O; S8 = C=CCCCCCC[C@](C)(N)C(=O)O; hSer = N[C@@H](CCO)C(=O)O; Nle = CCCC[C@H](N)C(=O)O; PhAc = O=C(Cc1ccccc1)*

T1: full-length beta-Catenin (Uniprot ID P35222) (Homo sapiens (Human), UniProt P35222 1-781)
T1 construct: The assay text says 'full-length beta-Catenin (Uniprot ID P35222)'; also called bCat; B-Catenin
T1 sequence: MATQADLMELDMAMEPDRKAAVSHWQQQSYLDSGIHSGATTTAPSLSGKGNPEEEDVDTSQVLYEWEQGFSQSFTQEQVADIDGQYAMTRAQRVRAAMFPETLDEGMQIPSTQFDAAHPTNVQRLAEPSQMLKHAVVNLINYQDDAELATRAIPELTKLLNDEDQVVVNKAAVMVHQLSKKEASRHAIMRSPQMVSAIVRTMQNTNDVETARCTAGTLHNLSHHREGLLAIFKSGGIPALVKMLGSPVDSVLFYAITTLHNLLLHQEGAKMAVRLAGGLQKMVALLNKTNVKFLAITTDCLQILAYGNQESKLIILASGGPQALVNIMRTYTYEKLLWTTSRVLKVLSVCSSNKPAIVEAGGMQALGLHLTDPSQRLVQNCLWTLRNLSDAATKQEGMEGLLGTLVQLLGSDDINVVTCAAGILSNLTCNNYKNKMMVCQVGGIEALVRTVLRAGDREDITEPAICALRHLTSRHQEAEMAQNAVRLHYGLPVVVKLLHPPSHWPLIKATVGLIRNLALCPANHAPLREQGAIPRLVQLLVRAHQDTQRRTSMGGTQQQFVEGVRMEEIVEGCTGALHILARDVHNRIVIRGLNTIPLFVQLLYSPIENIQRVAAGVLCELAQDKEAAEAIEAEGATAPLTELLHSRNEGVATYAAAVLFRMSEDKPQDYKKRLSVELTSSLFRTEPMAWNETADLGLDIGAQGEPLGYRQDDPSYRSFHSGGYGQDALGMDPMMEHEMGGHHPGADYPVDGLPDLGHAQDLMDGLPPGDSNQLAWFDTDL

T2: Bcat-Halo (UniProt P35222 1-781)
T2 sequence (looked up): T1 sequence

T3: full-length beta-Catenin (Uniprot ID P35222) (Homo sapiens (Human), UniProt P35222 1-781)
T3 construct: Used full-length in the FP and AlphaScreen assays; also called B-Catenin; bCat
T3 sequence: T1 sequence

B1: I-597 (peptide)
peptide: Ac-[αAllylPro]DI[B5]DEAAFQ[S8]F[Bta]QK(Azidoacetyl)-NH2
modifications: staple 1-4, 4-11; not fully specified
notes: Stapled peptide composition; same description as I-596, later eluting HPLC peak (staple isomer)
B2: I-596 (peptide)
peptide: XDIXDEAAFQXFXQK
modifications: not fully specified; Ac-PL3-Asp-Ile-B5-Asp-Glu-Ala-Ala-Phe-Gln-S8-Phe-BztA-Gln-[AzAc]Lys-NH2; stapled PL3(1)-B5(4) and B5(4)-S8(11) by olefin metathesis
notes: Stapled peptide composition
B3: I-579 (peptide)
peptide: Ac-FDA[R8]DDAAFQ[PyrS]FWQ-NH2
modifications: staple 4-11; not fully specified; printed as Ac-Phe-Asp-Ala-R8-Asp-Asp-Ala-Ala-Phe-Gln-PyrS-Phe-Trp-Gln-NH2
notes: Stapled peptide composition
B4: I-600 (peptide)
peptide: PhAc-[αAllylPro]DI[B5]DEAAFQ[S8]F[Bta]Q-NH2
modifications: staple 1-4, 4-11
notes: Stapled peptide composition; N-terminal cap Bnc
B5: I-578 (peptide)
peptide: XDAXDDAAFQXFXQ
modifications: not fully specified; Ac-PL3-Asp-Ala-B5-Asp-Asp-Ala-Ala-Phe-Gln-S8-Phe-BztA-Gln-NH2; stapled PL3(1)-B5(4) and B5(4)-S8(11) by olefin metathesis
notes: Stapled peptide composition; the description may be misprinted
B6: I-577 (peptide)
peptide: XDLXDEAAFNXFXQ
modifications: not fully specified; Ac-PL3-Asp-Leu-B5-Asp-Glu-Ala-Ala-Phe-Asn-S8-Phe-BztA-Gln-NH2; stapled PL3(1)-B5(4) and B5(4)-S8(11) by olefin metathesis
notes: Stapled peptide composition; same description as I-576, later eluting HPLC peak (staple isomer)
B7: I-197 (peptide)
peptide: Ac-[αAllylPro]DA[B5(4)][hPhe]EAAFV[S8]FWQ-NH2
modifications: staple 1-4, 4-11
notes: Stapled peptide composition; this is the later-eluting isomer composition
B8: I-196 (peptide)
peptide: Ac-[αAllylPro]DA[B5(4)][hPhe]EAAFV[S8]FWQ-NH2
modifications: staple 1-4, 4-11
notes: Stapled peptide composition; this is the earlier-eluting isomer composition

Biological target: T1, full-length beta-Catenin (Uniprot ID …)
Assay: fluorescence polarization competition; full-length beta-catenin, competitor 5FAM-TCF4(10-53) probe
Procedure: (§1) The plate was incubated protected from light for 60 minutes at 20° C. prior to read. Reads were performed on a CLARIOstar plate reader (BMG Labtech) in duplicate, and data were fitted to a 1:1 binding model with hill slope using an in-house script. All provided concentrations are final concentrations.

Row | Binder | EC50
1 | B1 | 0.076 µM
2 | B2 | 0.112 µM
3 | B3 | 5 µM
4 | B4 | 0.796 µM
5 | B5 | 5 µM
6 | B6 | 0.013 µM
7 | Ac-[αAllylPro]DI[B5(24)]FEAAFQ[S8]D[Bta]Q-NH2 (staple 1-4, 4-11, Stapled peptide composition) [I-587] | 5 µM

Biological target: T2, Bcat-Halo
Assay: cell-based or functional assay

Row | Binder | NanoBRET Abs IC50
8 | Ac-[αAllylPro]D[tBuAla][B5(4)]D[Phe(3-COOH)]A[dA]FL[PyrS2″][2F3MeF][Bta]A-NH2 (staple 1-4, 4-11; also: earlier-eluting HPLC isomer composition) [I-2098] | > 20 µM
9 | Ac-[αAllylPro]N[Cha][B5(4)]DQ[Lys(iPr)]AF[Lys(iPr)][PyrS2″]F[Bta][hSer]-NH2 (staple 1-4, 4-11) [I-2102] | > 20 µM
10 | Ac-[αAllylPro]D[tBuAla][B5(4)]D[Phe(3-COOH)]A[dA]FL[PyrS2″][3Thi][Bta][dA]-NH2 (staple 1-4, 4-11) [I-2100] | > 20 µM
11 | Ac-[αAllylPro]D[tBuAla][B5(4)]D[Phe(3-COOH)]A[dA]FL[PyrS2″][3Thi][Bta]A-NH2 (staple 1-4, 4-11; also: earlier-eluting HPLC isomer composition) [I-2096] | > 20 µM
12 | Ac-[αAllylPro]D[tBuAla][B5(4)]D[Phe(3-COOH)]A[dA]FL[PyrS2″][3Thi][Bta]A-NH2 (staple 1-4, 4-11; also: later-eluting HPLC isomer composition) [I-2097] | 22.3 µM

Biological target: T3, full-length beta-Catenin (Uniprot ID …)
Assay: AlphaScreen (nickel chelate) competition; full-length beta-catenin + biotin-TCF4(10-53) probe as competitor; peptide titrated
Procedure: as §1, with “Equal volume of the titrated peptide was added to the” for “The”, “and” for “was”, “incubated for 15 minutes at 20° C. Then 4 uL of donor and 4 uL acceptor beads at 10 ug/mL were added to the plate, for a 16 uL reaction pool and” for “incubated”

Row | Binder | EC50
13 | B7 | 6.15 µM
14 | Ac-[αAllylPro]DA[B5(3)][Nle]EAAFV[S8]FWQ-NH2 (staple 1-4, 4-11, Stapled peptide composition) [I-205] | ≥ 10 µM
15 | Ac-[αAllylPro]DA[B5(4)][3Pal]EAAFV[S8]FWQ-NH2 (staple 1-4, 4-11, Stapled peptide composition) [I-213] | 8.05 µM
16 | Ac-[αAllylPro]DA[B5(4)]D[hPhe]AAFV[S8]FWQ-NH2 (staple 1-4, 4-11, Stapled peptide composition) [I-195] | 2.18 µM
17 | B8 | 5.51 µM
18 | Ac-[αAllylPro][Phe(3-Me)]A[B5(3)]DEAAFV[S8]FWQ-NH2 (staple 1-4, 4-11, Stapled peptide composition) [I-203] | 5.99 µM
